Data published in CN116178545A (GUANGDONG FEIPENG PHARMACEUTICAL CO LTD, dated 2023).
Substitutions are numbered along the chain they refer to.

T1: 重组人CD276蛋白 (human, UniProt Q5ZPR3-2 29-245)
T1 construct: The words 携带hFc标签的 stand before the first protein of the list; also called B7-H3; Acrobiosystem Cat.B73-H5253
T1 sequence (looked up): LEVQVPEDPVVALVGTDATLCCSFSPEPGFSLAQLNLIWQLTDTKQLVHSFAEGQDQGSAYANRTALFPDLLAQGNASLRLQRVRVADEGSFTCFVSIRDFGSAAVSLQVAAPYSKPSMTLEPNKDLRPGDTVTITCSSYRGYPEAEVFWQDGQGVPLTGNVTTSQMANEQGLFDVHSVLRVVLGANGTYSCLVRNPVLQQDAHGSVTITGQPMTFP

T2: 重组人ICOSLG蛋白 (human, UniProt O75144 19-258)
T2 construct: The words 携带hFc标签的 stand before the first protein of the list; also called Acrobiosystem Cat.B72-H5254
T2 sequence (looked up): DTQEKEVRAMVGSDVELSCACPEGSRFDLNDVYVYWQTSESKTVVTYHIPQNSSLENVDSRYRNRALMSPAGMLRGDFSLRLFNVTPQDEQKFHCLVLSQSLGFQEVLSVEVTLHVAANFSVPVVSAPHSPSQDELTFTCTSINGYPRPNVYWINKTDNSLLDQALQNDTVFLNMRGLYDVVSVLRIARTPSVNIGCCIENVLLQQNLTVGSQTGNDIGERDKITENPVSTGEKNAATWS

T3: 重组人CD86蛋白 (human, UniProt P42081 26-247)
T3 construct: The words 携带hFc标签的 stand before the first protein of the list; also called Acrobiosystem Cat.CD6-H5257
T3 sequence (looked up): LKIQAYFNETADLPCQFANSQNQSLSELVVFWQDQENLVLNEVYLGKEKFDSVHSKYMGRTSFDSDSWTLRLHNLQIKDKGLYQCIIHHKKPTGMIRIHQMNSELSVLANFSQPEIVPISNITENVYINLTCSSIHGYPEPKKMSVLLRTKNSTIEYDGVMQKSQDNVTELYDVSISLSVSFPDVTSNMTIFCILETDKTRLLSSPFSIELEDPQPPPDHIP

T4: 重组人PD-L2蛋白 (human, UniProt Q9BQ51 20-219)
T4 construct: The words 携带hFc标签的 stand before the first protein of the list; also called Acrobiosystem Cat.PD2-H5251
T4 sequence (looked up): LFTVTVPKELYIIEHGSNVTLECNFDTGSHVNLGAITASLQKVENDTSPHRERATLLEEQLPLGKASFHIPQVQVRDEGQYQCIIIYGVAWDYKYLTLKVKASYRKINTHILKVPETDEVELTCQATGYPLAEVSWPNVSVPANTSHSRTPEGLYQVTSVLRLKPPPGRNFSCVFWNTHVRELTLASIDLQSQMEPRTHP

T5: 重组人ICOS蛋白 (human, UniProt Q9Y6W8 21-140)
T5 construct: The words 携带hFc标签的 stand before the first protein of the list; also called Acrobiosystem Cat.ICS-H5250
T5 sequence (looked up): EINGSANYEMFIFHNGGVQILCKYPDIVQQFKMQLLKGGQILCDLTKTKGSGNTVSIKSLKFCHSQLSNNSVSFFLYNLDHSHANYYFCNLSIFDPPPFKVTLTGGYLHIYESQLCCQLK

B1: 176L1H2 (antibody, V domains shown)
VH: QVQLQESGPGLVKPSETLSLTCAVYGDSITSGYWNWIRKPPGKKLEYIGYISYTGSTYQNPSLKSRITMSRDTSKNQYYLKLSSVTAADTAVYYCARSRAWIRTYFDYWGQGTLVTVSS
VL: EIVLTQSPDFQSVTPKEKVTITCSVSSSISSSNLHWYQQKPDQSPKLWIYGTSNLASGVPSRFSGSGSGTDYTLTINSLEAEDAATYYCQQWSSYPLTFGQGTKLEIKR
notes: Whole humanized mAb expressed in 293 cells; detected with anti-human IgG; also called 抗人PD-L1人源化抗体176L1H2
B2: 176L2H2 (antibody, V domains shown)
VH: B1 VH
VL: B1 VL with L47P
notes: Whole humanized mAb expressed in 293 cells; detected with anti-human IgG; also called 抗人PD-L1人源化抗体176L2H2
B3: 176L2H3 (antibody, V domains shown)
VH: B1 VH with M69F
VL: B1 VL with L47P
notes: Whole humanized mAb expressed in 293 cells; detected with anti-human IgG; also called 抗人PD-L1人源化抗体176L2H3
B4: 176L1H1 (antibody, V domains shown)
VH: B1 VH with K44G
VL: B1 VL
notes: Whole humanized mAb expressed in 293 cells, protein A purified; hIgG1 isotype control; detected with anti-human IgG; also called 抗人PD-L1人源化抗体176L1H1
B5: 176L2H1 (antibody, V domains shown)
VH: B1 VH with K44G
VL: B1 VL with L47P
notes: Whole humanized mAb expressed in 293 cells; detected with anti-human IgG; also called 抗人PD-L1人源化抗体176L2H1
B6: 176L1H3 (antibody, V domains shown)
VH: B1 VH with M69F
VL: B1 VL
notes: Whole humanized mAb expressed in 293 cells; detected with anti-human IgG; also called 抗人PD-L1人源化抗体176L1H3
B7: 176L6H5 (antibody, V domains shown)
VH: B1 VH with Q1E, K44G, I48M, M69F, V92T
VL: B1 VL with W48L, Y72F
notes: Whole humanized mAb expressed in 293 cells; detected with anti-human IgG; also called 抗人PD-L1人源化抗体176L6H5
B8: 176L3H2 (antibody, V domains shown)
VH: B1 VH
VL: B1 VL with L47P, T73S
notes: Whole humanized mAb expressed in 293 cells; detected with anti-human IgG; also called 抗人PD-L1人源化抗体176L3H2
B9: F016-870-hIgG1 (antibody, V domains shown)
VH: EVQLQESGPSLVKPSQTLSLTCSVTGDSITSGYWNWIRKFPGNKLEYMGYISYTGSTYQNPSLKSRISFTRDTSKNQYYLQLSSVTTEDTATYYCARSRAWIRTYFDYWGQGTTLTVSS
VL: EIVLTQSPALMAASPGEKVTITCSVSSSISSSNLHWYQQKSETSPKPWIYGTSNLASGVPVRFSGSGSGTSYSLTISSMEAEDAATYYCQQWSSYPLTFGAGTKLELKR

Biological target: T6, 小鼠PD-L1 (on CHO cells) (mouse, UniProt Q9EP73 19-290)
T6 construct: whole, on cells; also called CHO-mPD-L1稳定细胞株; 稳定表达全长小鼠PD-L1的CHO
T6 sequence (Q9EP73 19-290): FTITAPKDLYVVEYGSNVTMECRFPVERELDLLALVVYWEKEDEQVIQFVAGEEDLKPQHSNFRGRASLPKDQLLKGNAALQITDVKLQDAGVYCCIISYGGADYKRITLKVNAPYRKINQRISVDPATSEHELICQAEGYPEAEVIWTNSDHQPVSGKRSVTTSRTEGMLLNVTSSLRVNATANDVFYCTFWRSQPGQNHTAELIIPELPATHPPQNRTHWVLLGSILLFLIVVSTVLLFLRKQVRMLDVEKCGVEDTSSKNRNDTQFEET
Assay: flow cytometry on CHO-mPD-L1 cells

Binder | binding result
B1 | no binding (tested: 20μg/ml)
B2 | no binding (tested: 20μg/ml)
B3 | no binding (tested: 20μg/ml)
B4 | no binding (tested: 20μg/ml)
B5 | no binding (tested: 20μg/ml)
B6 | no binding (tested: 20μg/ml)
B7 | no binding (tested: 20μg/ml)
B8 | no binding (tested: 20μg/ml)

Biological target: T1, 重组人CD276蛋白
Assay: ELISA, protein coated at 1μg/ml

Binder | binding result
B1 | no binding (tested: 10μg/ml)
B2 | no binding (tested: 10μg/ml)
B3 | no binding (tested: 10μg/ml)
B4 | no binding (tested: 10μg/ml)
B5 | no binding (tested: 10μg/ml)
B6 | no binding (tested: 10μg/ml)
B7 | no binding (tested: 10μg/ml)
B8 | no binding (tested: 10μg/ml)

Biological target: T2, 重组人ICOSLG蛋白
Assay: ELISA, protein coated at 1μg/ml

Binder | binding result
B1 | no binding (tested: 10μg/ml)
B2 | no binding (tested: 10μg/ml)
B3 | no binding (tested: 10μg/ml)
B4 | no binding (tested: 10μg/ml)
B5 | no binding (tested: 10μg/ml)
B6 | no binding (tested: 10μg/ml)
B7 | no binding (tested: 10μg/ml)
B8 | no binding (tested: 10μg/ml)

Biological target: T3, 重组人CD86蛋白
Assay: ELISA, protein coated at 1μg/ml

Binder | binding result
B1 | no binding (tested: 10μg/ml)
B2 | no binding (tested: 10μg/ml)
B3 | no binding (tested: 10μg/ml)
B4 | no binding (tested: 10μg/ml)
B5 | no binding (tested: 10μg/ml)
B6 | no binding (tested: 10μg/ml)
B7 | no binding (tested: 10μg/ml)
B8 | no binding (tested: 10μg/ml)

Biological target: T7, 重组人PD-1蛋白(自产) (human, UniProt Q15116 25-167)
T7 construct: The words 携带hFc标签的 stand before the first protein of the list
T7 sequence (Q15116 25-167): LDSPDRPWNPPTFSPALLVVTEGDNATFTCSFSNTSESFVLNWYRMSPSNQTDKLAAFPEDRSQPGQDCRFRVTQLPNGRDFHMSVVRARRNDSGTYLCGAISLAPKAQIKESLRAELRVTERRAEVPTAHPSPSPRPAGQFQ
Assay: ELISA, protein coated at 1μg/ml

Binder | binding result
B1 | no binding (tested: 10μg/ml)
B2 | no binding (tested: 10μg/ml)
B3 | no binding (tested: 10μg/ml)
B4 | no binding (tested: 10μg/ml)
B5 | no binding (tested: 10μg/ml)
B6 | no binding (tested: 10μg/ml)
B7 | no binding (tested: 10μg/ml)
B8 | no binding (tested: 10μg/ml)

Biological target: T4, 重组人PD-L2蛋白
Assay: ELISA, protein coated at 1μg/ml

Binder | binding result
B1 | no binding (tested: 10μg/ml)
B2 | no binding (tested: 10μg/ml)
B3 | no binding (tested: 10μg/ml)
B4 | no binding (tested: 10μg/ml)
B5 | no binding (tested: 10μg/ml)
B6 | no binding (tested: 10μg/ml)
B7 | no binding (tested: 10μg/ml)
B8 | no binding (tested: 10μg/ml)

Biological target: T5, 重组人ICOS蛋白
Assay: ELISA, protein coated at 1μg/ml

Binder | binding result
B1 | no binding (tested: 10μg/ml)
B2 | no binding (tested: 10μg/ml)
B3 | no binding (tested: 10μg/ml)
B4 | no binding (tested: 10μg/ml)
B5 | no binding (tested: 10μg/ml)
B6 | no binding (tested: 10μg/ml)
B7 | no binding (tested: 10μg/ml)
B8 | no binding (tested: 10μg/ml)

Biological target: T8, 重组人CTLA-4蛋白 (human, UniProt P16410 37-162)
T8 construct: The words 携带hFc标签的 stand before the first protein of the list; also called Acrobiosystem Cat.CT4-H5255
T8 sequence (P16410 37-162): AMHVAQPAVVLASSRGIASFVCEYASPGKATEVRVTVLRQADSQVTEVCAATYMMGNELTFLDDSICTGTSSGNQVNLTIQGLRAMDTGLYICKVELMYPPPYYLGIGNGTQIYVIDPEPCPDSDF
Assay: ELISA, protein coated at 1μg/ml

Binder | binding result
B1 | no binding (tested: 10μg/ml)
B2 | no binding (tested: 10μg/ml)
B3 | no binding (tested: 10μg/ml)
B4 | no binding (tested: 10μg/ml)
B5 | no binding (tested: 10μg/ml)
B6 | no binding (tested: 10μg/ml)
B7 | no binding (tested: 10μg/ml)
B8 | no binding (tested: 10μg/ml)

Biological target: T9, 重组人CD28蛋白 (human, UniProt P10747 19-152)
T9 construct: The words 携带hFc标签的 stand before the first protein of the list; also called Acrobiosystem Cat.CD8-H525a
Assay: ELISA, protein coated at 1μg/ml

Binder | binding result
B1 | no binding (tested: 10μg/ml)
B2 | no binding (tested: 10μg/ml)
B3 | no binding (tested: 10μg/ml)
B4 | no binding (tested: 10μg/ml)
B5 | no binding (tested: 10μg/ml)
B6 | no binding (tested: 10μg/ml)
B7 | no binding (tested: 10μg/ml)
B8 | no binding (tested: 10μg/ml)

Biological target: T10, 人PD-L1 (on cells) (human, UniProt Q9NZQ7 19-290)
T10 construct: whole, on cells; One molecule for human PD-L1 on CHO-hPD-L1, on IFNγ-stimulated A375 and on CHO-hPD-L1-OKT3 cells; the cell is named under assay; also called CHO-hPD-L1稳定细胞株; 稳定表达人PD-L1的CHO
T10 sequence (Q9NZQ7 19-290): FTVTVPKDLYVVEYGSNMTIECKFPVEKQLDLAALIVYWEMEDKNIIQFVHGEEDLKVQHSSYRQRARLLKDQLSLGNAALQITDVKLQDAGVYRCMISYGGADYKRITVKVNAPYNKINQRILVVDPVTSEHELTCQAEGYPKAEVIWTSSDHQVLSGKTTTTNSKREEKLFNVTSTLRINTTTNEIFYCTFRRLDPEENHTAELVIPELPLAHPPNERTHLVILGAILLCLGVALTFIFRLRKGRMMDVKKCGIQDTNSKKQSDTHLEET
Assay: flow cytometry on IFNγ-stimulated A375 cells

Binder | EC50 [nM]
B1 | ~0.2
B2 | ~0.2
B3 | ~0.2
B4 | ~0.2
B5 | ~0.2
B6 | ~0.2
B7 | ~0.2
B8 | ~0.2

Biological target: T11, hPD-L1-his (human, UniProt Q9NZQ7 19-238)
T11 construct: extracellular domain; also called 携带his标签的人PD-L1胞外区重组蛋白; not shown: his tag
T11 sequence (Q9NZQ7 19-238): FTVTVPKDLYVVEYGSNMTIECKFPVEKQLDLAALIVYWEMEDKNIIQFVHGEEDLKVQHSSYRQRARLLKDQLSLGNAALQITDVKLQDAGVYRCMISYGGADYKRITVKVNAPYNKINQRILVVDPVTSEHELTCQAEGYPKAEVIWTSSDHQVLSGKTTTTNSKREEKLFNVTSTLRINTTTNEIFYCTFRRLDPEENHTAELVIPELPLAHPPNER
Assay: BLI (ForteBIO), hPD-L1-his on anti-Penta-HIS sensor

Binder | Kd [nM]
B9 | < 0.001
B7 | 0.0302
